“Also recorded” adds a separate entry of the source.
Key:
[1] = test system: SKOV-3 cells; assay: in vitro growth assay (MTT-based) with rOPCML added to growth media; settings: 0.5-10 μM for 48 h or 2 μM for 96 h
Procedure: (§1) (A) SKOV-3 cells were subjected to a 48 h in vitro growth assay with varying concentrations of OPCML administration. (B) A 96 h in vitro SKOV-3 growth assay with 2 μM rOPCML administered to growth media. Time points were collected every 24 h and normalised to control cells treated with vehicle only. Cell viability was quantified using MTT and measured at 570 nm. (C) Upper panel—OSE-C2 and SKOV-3 cells were subjected to a 48 h in vitro growth assay with varying OPCML concentrations (0.5, 1, 2, 5 and 10 μM); lower panel—normal ovarian surface epithelial cells (OSE-C2) and a panel of ovarian (SKOV-3, IGROV, OVISE, OVCAR-5, A2780, PEA1 and PEA2) and […] breast cancer cells were subjected to an in vitro growth assay with 10 μm OPCML. Time points were collected at 24 h and 48 h and cell growth was monitored to vehicle only controls. Cell viability was quantified in all experiments using an MTT-based assay and measured at 570 nm.
(B) a 96 h in vitro SKOV-3 growth assay with 2 μM rOPCML administered to growth media. Time points were collected every 24 h and normalised to control cells treated with vehicle only. […] Cell viability was quantified in all experiments using an MU-based assay and measured at 570 nm. […] Caspase cleavage was quantified using the GaspaseGlo kit and normalised to cell viability. […]

[2] = test system: normal ovarian surface epithelial cells (OSE-C2); assay: in vitro growth assay (MTT-based) with rOPCML; type: cell-based; settings: OSE-C2, OPCML expressing
Procedure: as §1
(B) a 96 h in vitro SKOV-3 growth assay with 2 μM rOPCML administered to growth media. Time points were collected every 24 h and normalised to control cells treated with vehicle only. (C) Normal ovarian surface epithelial cells (OSE-C2) and a panel of ovarian (SKOV-3, IGROV, OVISE, OVCAR-5, A2780, PEA1 and PEA2), […] breast cancer cells and non-adherant (H69, H501 small-cell) and adherent (A549 carcinoma, HCC95 non-SSLC squamous) lung cancer cells were subjected to an in vitro growth assay with 10 μM of rOPCML. Time points were collected at 24 and 48 h and cell growth was normalised to vehicle only controls. Cell viability was quantified in all experiments using an MU-based assay and measured at 570 nm. Caspase cleavage-based apoptosis assays using (D) A2780 and (E) SKOV-3 were undertaken with administration of rOPCML (2, 5 and 10 μM) over 24 h. Caspase cleavage was quantified using the GaspaseGlo kit and normalised to cell viability. […]

[3] = test system: ovarian cancer cell lines (SKOV-3, IGROV, OVISE, OVCAR-5, A2780, PEA1 and PEA2); assay: in vitro growth assay (MTT-based) with rOPCML, ovarian panel; type: cell-based; settings: for growth of ovarian and breast cancer cell lines: 10 μM, 24 h and 48 h, versus vehicle only; for ovarian cancer cell lines growth-inhibited / killed, of lines tested: in vitro
Procedure: (§2) We have tested 0.5, 1, 2, 5 and 10 μM of recombinant […] human OPCML in vitro, and there is a linear dose response which has not yet peaked. […] The physician skilled in the art will be able to identify suitable doses based upon this information and their skill in the art.
as §1
(§3) (B) a 96 h in vitro SKOV-3 growth assay with 2 μM rOPCML administered to growth media. Time points were collected every 24 h and normalised to control cells treated with vehicle only. (C) Normal ovarian surface epithelial cells (OSE-C2) and a panel of ovarian (SKOV-3, IGROV, OVISE, OVCAR-5, A2780, PEA1 and PEA2), HER2-positive (MDA-231) and negative (BT-474) breast cancer cells and non-adherant (H69, H501 small-cell) and adherent (A549 carcinoma, HCC95 non-SSLC squamous) lung cancer cells were subjected to an in vitro growth assay with 10 μM of rOPCML. Time points were collected at 24 and 48 h and cell growth was normalised to vehicle only controls. Cell viability was quantified in all experiments using an MU-based assay and measured at 570 nm. Caspase cleavage-based apoptosis assays using (D) A2780 and (E) SKOV-3 were undertaken with administration of rOPCML (2, 5 and 10 μM) over 24 h. Caspase cleavage was quantified using the GaspaseGlo kit and normalised to cell viability.

[4] = test system: HER2-positive (MDA-231) and negative (BT-474) breast cancer cells; assay: in vitro growth assay (MTT-based) with rOPCML, breast lines; type: cell-based; settings: for breast cancer cell lines growth-inhibited / killed, of lines tested: both HER2 positive and HER2 negative
Procedure: as §2, §1
(B) a 96 h in vitro SKOV-3 growth assay with 2 μM rOPCML administered to growth media. Time points were collected every 24 h and normalised to control cells treated with vehicle only. (C) Normal ovarian surface epithelial cells (OSE-C2) and a panel of ovarian (SKOV-3, IGROV, OVISE, OVCAR-5, A2780, PEA1 and PEA2), […] breast cancer cells and non-adherant (H69, H501 small-cell) and adherent (A549 carcinoma, HCC95 non-SSLC squamous) lung cancer cells were subjected to an in vitro growth assay with 10 μM of rOPCML. Time points were collected at 24 and 48 h and cell growth was normalised to vehicle only controls. Cell viability was quantified in all experiments using an MU-based assay and measured at 570 nm. […] Caspase cleavage was quantified using the GaspaseGlo kit and normalised to cell viability.

[5] = test system: lung cancer cells (H69, H501, A549, HCC95); assay: in vitro growth assay (MTT-based) with rOPCML, lung lines; type: cell-based; settings: 10 μM rOPCML
Procedure: as §3

[6] = test system: SKOV-3 and A2780 ovarian cancer cells; assay: Annexin V FACS and caspase-glo apoptosis assays with r-OPCML; type: cell-based
Procedure: as §3
Purified recombinant human OPCML domain 1-3 protein (r-OPCML) (FIG. 8) was produced from the bacterial expression vector (pHis-Trx) subcloned with domains 1-3 of OPCML, excluding the signal peptide and GPI anchor sequences (FIG. 8A).

[7] = test system: receptor tyrosine kinase signaling in SKOV-3 and A2780 cells; assay: Western blot / IFM of RTKs and downstream signalling after exogenous OPCML; type: cell-based; settings: for RTK levels and RTK signalling: 2 μM for 48 h, Western blot
Procedure: FIG. 9: Cellular uptake of recombinant OPCML. SKOV-3 cells were incubated with vehicle alone or vehicle including 2 μM OPCML for 24 h. Cells were then washed 3× with PBS and fixed with 4% PFA. Cells were then prepared for IFM using rabbit α-HER2 mAb and mouse α-OPCML mAb. Goat α-rabbit alexa-488 and α-mouse alexa-555 secondary antibodies were used. Slides were imaged using a Leica SP5 confocal microscope.
(§4) (A) Western Blot analysis of pHER, tHER2, tEGFR, pEGFR, tFGFR, pFGFR proteins from SKOV-3 cells untreated, treated with vehicle only or OPCML (2 μM) for 48 h. (B) Western blot analysis of pAKT, tAKT, pERK, tERK proteins from SKOV-3 cells untreated, treated with vehicle only or OPCML (2 μM) for 48 h. Protein loading was standardised by BCA-assay and β-tubulin was used as a loading control.
as §4, with “SKOV-3 and A2780” for “SKOV-3”, “cells” for “cells untreated,”, “tERK,” for “tERK”

[8] = test system: A2780 cancer cells injected intraperitoneally; assay: intraperitoneal tumour growth assay, r-OPCML versus BSA; type: in vivo, nude mouse; settings: A2780 model; for IP tumour growth / tumour weight: 1 ml (10 μM) IP twice weekly, 3 weeks; for IP tumour growth / tumour weight / ascites formation / volume / number of IP peritoneal deposits / peritoneal dissemination: versus BSA
Procedure: (§5) Comparison of r-OPCML and control protein (bovine serum albumen) treated A2780 and SKOV-3 cell lines. (A) Gross anatomical observation of the animals (B) Intraperitoneal tumour growth assay. Tumours were removed, weighed and photographed after 3 weeks of twice-weekly 1 mL intraperitoneal injection of 10 μM r-OPCML or BSA. Representative A2780 and SKOV-3 tumour xenografts from 4 animals are presented. A scale bar is shown. (C) mean tumour weight, (D) number of deposits and (E) volume of ascites removed per mouse from the intraperitoneal assay presented in B. Comparison is shown between tumours and ascites collected from BSA- (−) and r-OPCML-treated (+) mice. (F) Western blot analysis of recovered tumours from control (BSA) and r-OPCML treated animals recapitulates in-vitro findings.
(§6) In view of these in-vitro findings, we proceeded to determine whether r-OPCML protein had potential and relevance as an in-vivo tumour suppressor therapy. Mice with either SKOV-3 or A2780 cancer cells injected intraperitoneally (IP), after tumour establishment, received twice-weekly IP injections of either 1 ml (10 μM) bovine serum albumin (BSA) or 1 ml (10 μM) r-OPCML.

[9] = test system: SKOV-3 cancer cells injected intraperitoneally; assay: as above; type: in vivo, nude mouse; settings: for IP tumour growth / tumour weight: 1 ml (10 μM) IP twice weekly, 3 weeks
Procedure: as §5, §6

[10] = 0.5, 1, 2, 5 and 10 μM tested in vitro, ovarian and breast cancer cell lines
[11] = listed as recombinant full length human OPCML
[12] = SKOV-3 model, versus BSA, listed as rOPCML

B1: r-OPCML: Purified recombinant human OPCML domain 1-3 protein from E. coli, excluding signal peptide and GPI anchor sequences; SEQ ID No 5 (protein, listed as Homo sapiens)
chain: PKAMDNVTVRQGESATLRCTIDDRVTRVAWLNRSTILYAGNDKWSIDPRVIILVNTPTQYSIMIQNVDVYDEGPYTCSVQTDNHPKTSRVHLIVQVPPQIMNISSDITVNEGSSVTLLCLAIGRPEPTVTWRHLSVKEGQGFVSEDEYLEISDIKRDQSGEYECSALNDVAAPDVRKVKITVNYPPYISKAKNTGVSVGQKGILSCEASAVPMAEFQWFKEETRLATGLDGMRIENKGRMSTLTFFNVSEKDYGNYTCVATNKLGNTNASIT
- SKOV-3 cell growth in vitro [1]: specific, dose-dependent inhibition of cell growth
- SKOV-3 cell growth in vitro ([1]; listed as exogenous OPCML): inhibits SKOV-3 cell growth
- effect on normal ovarian surface epithelial cells [2]: without affecting normal ovarian surface epithelial cells
- effect on normal ovarian surface epithelial cells ([2]; listed as OPCML): sparing normal ovarian surface epithelial cells
- effect on normal ovarian surface epithelial cells ([2]; listed as rOPCML): no effect
- growth of ovarian and breast cancer cell lines ([3]; listed as Exogenous OPCML): inhibits growth
- growth of ovarian and breast cancer cell lines ([3]; listed as OPCML): inhibits growth
- growth of ovarian and breast cancer cell lines ([3]; listed as rOPCML): specifically inhibits
- concentration from which inhibition of cell growth is seen [3, 10]: ≥ 2 μm
- concentration giving frank cell death [3, 10]: 5 to 10 µM
- response of PEA2 cell line ([3]; PEA2): resistance
- ovarian cancer cell lines growth-inhibited / killed, of lines tested [3]: 6 of 7
- ovarian cancer cell lines growth-inhibited / killed, of lines tested ([3]; listed as rOPCML): 6/7
- ovarian cancer cell lines growth-inhibited / killed, of lines tested [3, 11]: 6/7
- growth of HER2+ and HER2− breast cancer cell line ([4]; 10 μM, 24 h and 48 h): profoundly inhibited
- breast cancer cell lines growth-inhibited / killed, of lines tested [4]: 2 of 2
- breast cancer cell lines growth-inhibited / killed, of lines tested [4, 11]: 2/2
- lung cancer cell lines with profoundly inhibited cell growth, of lines tested [5]: 5 of 5
- apoptosis in caspase-glo assay ([6]; 2, 5 and 10 μM over 24 h): induces apoptosis in both these cell lines in a dose dependent fashion
- early apoptosis, time post exposure ([6]; Annexin V FACS apoptosis assay, depending on cell line): 2 to 6 h
- RTK levels and RTK signalling [7]: potently downregulated
- RTK levels and RTK signalling ([7]; listed as Exogenous OPCML): inhibits RTK signaling
- RTK levels and RTK signalling ([7]; listed as exogenous OPCML): inhibits receptor tyrosine kinase signaling
- RTK levels and RTK signalling ([7]; listed as rOPCML): abrogates total RTK levels and inhibits RTK signalling
- ERK protein levels ([7]; SKOV-3, 2 μM OPCML 48 h): downregulates
- HER2 protein level ([7]; SKOV-3, 2 μM OPCML, listed as exogenous OPCML): downregulation of HER2; also recorded: downregulates
- pERK and pAKT ([7]; SKOV-3 and A2780, immunoblotting): abrogating pERK and pAKT
- AKT S473 phosphorylation ([7]; administration to cancer cells in vitro): inhibits phospho S473 AKT; also recorded: inhibits AKT s473 phosphorylation
- IP tumour growth / tumour weight [8]: significantly and profoundly suppressed
- IP tumour growth / tumour weight ([8]; listed as Recombinant OPCML): reduces tumour growth
- IP tumour growth / tumour weight ([8]; listed as rOPCML): profound inhibition
- condition of animals at 3 weeks ([8]; BSA controls deteriorating): remained well
- ascites formation / volume [8]: significantly and profoundly suppressed
- number of IP peritoneal deposits / peritoneal dissemination [8]: profoundly inhibited
- ascites formation / volume ([8]; listed as rOPCML): profound inhibition
- number of IP peritoneal deposits / peritoneal dissemination ([8]; listed as rOPCML): profound inhibition
- RTKs in recovered IP tumour (Western blotting) ([9]; SKOV3 IP tumour, r-OPCML versus BSA treated): same spectrum of RTKs inhibited
- peritoneal dissemination ([9]; SKOV3 model, versus BSA): profound inhibition
- IP tumour growth / tumour weight ([9]; SKOV-3 model, versus BSA): significantly and profoundly suppressed
- IP tumour growth / tumour weight ([9]; SKOV-3 model, versus BSA, listed as Recombinant OPCML): reduces tumour growth
- IP tumour growth / tumour weight [9, 12]: profound inhibition
- condition of animals at 3 weeks ([9]; SKOV-3 model, BSA controls deteriorating): remained well
- ascites formation / volume ([9]; SKOV-3 model, versus BSA): significantly and profoundly suppressed
- ascites formation / volume [9, 12]: profound inhibition

Source: patent publication US9649378B2, “Cancer methods” (priority 2010, dated 2017)
